Experimental data as given in patent US20150080549A1 (Chugai, published 2015).
Starred links: 1 amine or outer side, 2 acyl side, 3 side chain; linkers in the order of their positions; H or OH if unused. Positions of bridges follow the written chain, without caps; N, C: chain ends. Non-standard residues stand in square brackets, D forms with d. Hyp(Et) = (2S,4R)-4-ethoxypyrrolidine-2-carboxylic acid, CCO[C@@H]1C[C@@H](C(=O)[*:2])N([*:1])C1; γEtAbu = 4-(ethylamino)butanoic acid, CCN(CCCC(=O)[*:2])[*:1]; Phe(4-CF3) = N[C@@H](Cc1ccc(C(F)(F)F)cc1)C(=O)O; NMeAla(4-thiazolyl) = CN[C@@H](Cc1cscn1)C(=O)O; NMePhe(3-Cl) = CN[C@@H](Cc1cccc(Cl)c1)C(=O)O; Met(O2) = CS(=O)(=O)CC[C@H](N)C(=O)O; NMeF = CN[C@@H](Cc1ccccc1)C(=O)O; FlPu(urea) = not defined here; Phg = N[C@H](C(=O)O)c1ccccc1; NMeS = CN[C@@H](CO)C(=O)O; βAla = NCCC(=O)O; Sar = CNCC(=O)O

T1: biotinylated Interleukin-6 receptor (IL-6R) (human, UniProt P08887 20-344, limits assumed, biotinylated (method of BMC biotechnology, 2008, 8, 41 and Protein Science, 1999, 8, 921-929); site not stated)
T1 construct: also called human IL-6 receptor; hIL-6R
T1 sequence (looked up): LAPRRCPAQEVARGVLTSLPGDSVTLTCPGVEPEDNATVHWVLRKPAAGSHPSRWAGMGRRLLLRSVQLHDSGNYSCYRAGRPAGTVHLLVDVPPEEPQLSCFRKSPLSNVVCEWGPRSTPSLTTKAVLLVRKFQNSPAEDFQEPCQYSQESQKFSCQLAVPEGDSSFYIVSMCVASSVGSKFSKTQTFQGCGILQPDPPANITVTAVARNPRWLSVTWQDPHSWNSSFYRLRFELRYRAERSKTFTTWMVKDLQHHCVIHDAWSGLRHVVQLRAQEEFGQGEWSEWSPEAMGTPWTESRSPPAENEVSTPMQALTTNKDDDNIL


Molecular target: T2, biotinylated Recombinant Human Tumor Necrosis Factor-alpha (Prospec, Catalog Number #CYT-223) (human, UniProt P01375 77-233, biotinylated with EZ-Link NHS-PEG4-Biotin (Thermo scientific 21329); sites not stated)
T2 construct: Bought protein; also called TNFα; tumor necrosis factor-α
T2 sequence (P01375 77-233 limits assumed): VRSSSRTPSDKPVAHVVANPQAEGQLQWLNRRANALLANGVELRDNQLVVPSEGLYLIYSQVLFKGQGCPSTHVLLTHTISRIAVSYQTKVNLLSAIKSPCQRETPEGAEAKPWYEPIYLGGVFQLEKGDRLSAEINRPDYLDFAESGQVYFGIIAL
Assay: ECL immunoassay (MSD): biotinylated target on streptavidin plate, translated FlPu(urea)-labelled cyclic peptide (Translation Solution T), anti-fluorescein and SULFO-TAG anti-mouse antibody; no-template control 232
Protocol: (§1) 0.5 μl of a 200 mM EDTA solution (pH 8.0, Nacalai, 14362-24) and 0.5 μl of a 100 mM TCEP solution (pH 6.6) were added to 5 μL of the translation mixture, and the mixture was incubated at 37° C. for 120 minutes to cause cyclization reaction. 11 μL of desulfurization buffer (15 mM cysteine, 36 mM TCEP) was added to the cyclization product, and the mixture was incubated at 42° C. for 1 minutes, after which 4 μL of 1 M VA-044 (Wako, CAS No. 27776-21-2) was added and the mixture was allowed to stand at 42° C. for 1 hour.
(§2) Immunoassay was carried out using the above peptide solution for ECL assay. 500 nM biotinylated target protein was added at 10 μL per well to MSD Streptavidin MULTI-ARRAY 384-well plate (Meso Scale Discovery, L25SB-1), and reaction was conducted at room temperature for 1 hour with shaking at 500 rpm to immobilize the target protein. 2% skim milk PBS was added at 50 μL per well, and blocking was carried out by allowing to stand at room temperature for 2 hours. The reaction solution was removed and the plate was washed with PBS containing 0.05% Tween 20 (PBST) three times, after which 10 μL of the peptide solution for ECL assay was added and the plate was shaken at room temperature for 50 minutes at 500 rpm. The reaction solution was removed and the plate was washed with PBST three times, after which 10 μL of IgG Fraction Monoclonal Mouse Anti-Fluorescein (Jackson ImmunoResearch, 200-002-037) diluted to 0.5 μg/mL with 2% skim milk PBS was added, and reaction was conducted at room temperature for 50 minutes with shaking at 500 rpm. The reaction solution was removed and the plate was washed with PBST three times, after which 10 μL of SULFO-TAG Anti-Mouse Antibody (Meso Scale Discovery, R32AC-5) diluted to 1 μg/mL with 2% skim milk PBS was added, and reaction was conducted at room temperature for 50 minutes with shaking at 500 rpm. The reaction solution was removed and the plate was washed with PBST three times, after which 35 μl, of 2× Read Buffer T (Meso Scale Discovery, R92TC-3) was added and measurement was carried out using SECTOR Imager 2400 (Meso Scale Discovery).

Row | Binder | ECL signal
1 | A[NMeAla(4-thiazolyl)]IPVWW[Phe(4-CF3)][Met(O2)]VDW[NMeAla(4-thiazolyl)]SGSGSGS-{FlPu(urea)} (lactam N-11; reading uncertain, Translated in ECL Translation Solution T, cyclized and desulfurized; not isolated; also called translation product of template DNA DME-9) [SEQ ID NO: PE-9 (TNFα binder) peptide] | 264000
2 | A[Phe(4-CF3)]WWV[Sar]GP[Hyp(Et)]SD[NMeS][Met(O2)]SGSGSGS-{FlPu(urea)} (lactam N-11; reading uncertain, Translated in ECL Translation Solution T, cyclized and desulfurized; not isolated; also called translation product of template DNA DME-8) [SEQ ID NO: PE-8 (TNFα binder) peptide] | 73300
3 | ATWI[NMeF][Phg]W[βAla][Phe(4-CF3)][Phg]DVTSGSGSGS-{FlPu(urea)} (lactam N-11; reading uncertain, Translated in ECL Translation Solution T, cyclized and desulfurized; not isolated; also called translation product of template DNA DME-11) [SEQ ID NO: PE-11 (TNFα binder) peptide] | 149000
4 | ATIP[dY]WW[Phe(4-CF3)][Met(O2)]VDW[NMeAla(4-thiazolyl)]SGSGSGS-{FlPu(urea)} (lactam N-11; reading uncertain, Translated in ECL Translation Solution T, cyclized and desulfurized; not isolated; also called translation product of template DNA DME-10) [SEQ ID NO: PE-10 (TNFα binder) peptide] | 50700

Molecular target: T1, biotinylated Interleukin-6 receptor …
Assay: ECL immunoassay (MSD): biotinylated target on streptavidin plate, translated FlPu(urea)-labelled cyclic peptide (Translation Solution T), anti-fluorescein and SULFO-TAG anti-mouse antibody; no-template control 177
Protocol: as §1, §2

Row | Binder | ECL signal
5 | APIIW[NMePhe(3-Cl)][Met(O2)]P[NMePhe(3-Cl)][dY]DV[dY]SGSGSGS-{FlPu(urea)} (lactam N-11; reading uncertain, Translated in ECL Translation Solution T, cyclized and desulfurized; not isolated; also called translation product of template DNA DME-3) [SEQ ID NO: PE-3 (IL-6R binder) peptide] | 70000
6 | AII[NMeAla(4-thiazolyl)]WP[NMePhe(3-Cl)][Met(O2)][dY][βAla]DP[NMePhe(3-Cl)]SGSGSGS-{FlPu(urea)} (lactam N-11; reading uncertain, Translated in ECL Translation Solution T, cyclized and desulfurized; not isolated; also called translation product of template DNA DME-14) [SEQ ID NO: PE-14 (IL-6R binder) peptide] | 45600
7 | APVI[NMeF][Met(O2)]P[NMePhe(3-Cl)]V[Met(O2)]DP[Sar]SGSGSGS-{FlPu(urea)} (lactam N-11; reading uncertain, Translated in ECL Translation Solution T, cyclized and desulfurized; not isolated; also called translation product of template DNA DME-13) [SEQ ID NO: PE-13 (IL-6R binder) peptide] | 537000
8 | APII[NMeF][Met(O2)]P[NMePhe(3-Cl)][dY]VDSTSGSGSGS-{FlPu(urea)} (lactam N-11; reading uncertain, Translated in ECL Translation Solution T, cyclized and desulfurized; not isolated; also called translation product of template DNA DME-2) [SEQ ID NO: PE-2 (IL-6R binder) peptide] | 307000

Molecular target: T2, biotinylated Recombinant Human Tumor …
Assay: SPR, Biacore T200, 20 C; biotinylated TNFα captured on sensor chip CAP, peptide as analyte; KD=koff/kon from curve fitting
Protocol: An SPR experiment for analyzing the interaction between synthetic peptides and TNFα was conducted using Biacore T200 (GE healthcare) at 20° C. Synthetic peptides were added to the immobilized protein, and the interaction was evaluated.
Surfactant P-20 and DMSO were added to the above phosphate buffered saline at final concentrations of 0.01 vol % and 5 vol %, respectively, and the resulting mixture was used as running buffer. CAP reagent was immobilized on a Biacore sensor chip, Series S sensor chip CAP (GE healthcare), according to the instructions, and biotinylated TNFα was immobilized. Each synthetic peptide was added at multiple concentrations, and sensorgrams for binding to the immobilized TNFα were provided to measure dissociation constants (KD).
The obtained sensorgrams were analyzed using T200 evaluation software (GE healthcare) or Scrubber2 (Biologic software). First, solvent correction for DMSO and double reference (correction by subtracting sensorgrams of flow cells where TNFα was not immobilized and sensorgrams in the case where the buffer was added) were carried out. Second, binding rate constants (kₒₙ) and dissociation rate constants (koff) were calculated from curve fitting to the corrected sensorgrams, and KDs were determined by the relational expression KD=koff/kₒₙ.

Row | Binder | Kd [nM]
9 | [γEtAbu]T[Phg]I[NMeAla(4-thiazolyl)]WW[Phe(4-CF3)][dY][NMePhe(3-Cl)]DP[Sar]S-OH (lactam N-11; SMILES CC[C@H](C)[C@@H]1NC(=O)[C@H](c2ccccc2)NC(=O)[C@H]([C@@H](C)O)NC(=O)CCCN(CC)C(=O)C[C@@H](C(=O)N2CCC[C@H]2C(=O)N(C)CC(=O)N[C@@H](CO)C(=O)O)NC(=O)[C@H](Cc2cccc(Cl)c2)N(C)C(=O)[C@@H](Cc2ccc(O)cc2)NC(=O)[C@H](Cc2ccc(C(F)(F)F)cc2)NC(=O)[C@H](Cc2c[nH]c3ccccc23)NC(=O)[C@H](Cc2c[nH]c3ccccc23)NC(=O)[C@H](Cc2cscn2)N(C)C1=O, Chemically synthesized, HPLC purified) [Compound SP842] | 160
10 | A[Phe(4-CF3)]WWV[Sar]GP[Hyp(Et)]SD[NMeS][Met(O2)]S-OH (lactam N-11; SMILES CCO[C@@H]1C[C@H]2C(=O)N[C@@H](CO)C(=O)N[C@H](C(=O)N(C)[C@@H](CO)C(=O)N[C@@H](CCS(C)(=O)=O)C(=O)N[C@@H](CO)C(=O)O)CC(=O)N[C@@H](C)C(=O)N[C@@H](Cc3ccc(C(F)(F)F)cc3)C(=O)N[C@@H](Cc3c[nH]c4ccccc34)C(=O)N[C@@H](Cc3c[nH]c4ccccc34)C(=O)N[C@@H](C(C)C)C(=O)N(C)CC(=O)NCC(=O)N3CCC[C@H]3C(=O)N2C1, Chemically synthesized, HPLC purified) [Compound SP844] | 20
11 | ATWI[NMeF][Phg]W[βAla][Phe(4-CF3)][Phg]DVTS-OH (lactam N-11; SMILES CC[C@H](C)[C@@H]1NC(=O)[C@H](Cc2c[nH]c3ccccc23)NC(=O)[C@H]([C@@H](C)O)NC(=O)[C@H](C)NC(=O)C[C@@H](C(=O)N[C@H](C(=O)N[C@H](C(=O)N[C@@H](CO)C(=O)O)[C@@H](C)O)C(C)C)NC(=O)[C@H](c2ccccc2)NC(=O)[C@H](Cc2ccc(C(F)(F)F)cc2)NC(=O)CCNC(=O)[C@H](Cc2c[nH]c3ccccc23)NC(=O)[C@H](c2ccccc2)NC(=O)[C@H](Cc2ccccc2)N(C)C1=O, Chemically synthesized, HPLC purified) [Compound SP848] | 250
12 | A[NMeAla(4-thiazolyl)]IPVWW[Phe(4-CF3)][Met(O2)]VDW[NMeAla(4-thiazolyl)]S-OH (lactam N-11; SMILES CC[C@H](C)[C@@H]1NC(=O)[C@H](Cc2cscn2)N(C)C(=O)[C@H](C)NC(=O)C[C@@H](C(=O)N[C@@H](Cc2c[nH]c3ccccc23)C(=O)N(C)[C@@H](Cc2cscn2)C(=O)N[C@@H](CO)C(=O)O)NC(=O)[C@H](C(C)C)NC(=O)[C@H](CCS(C)(=O)=O)NC(=O)[C@H](Cc2ccc(C(F)(F)F)cc2)NC(=O)[C@H](Cc2c[nH]c3ccccc23)NC(=O)[C@H](Cc2c[nH]c3ccccc23)NC(=O)[C@H](C(C)C)NC(=O)[C@@H]2CCCN2C1=O, Chemically synthesized, HPLC purified) [Compound SP845] | 940
13 | ATIP[dY]WW[Phe(4-CF3)][Met(O2)]VDW[NMeAla(4-thiazolyl)]S-OH (lactam N-11; SMILES CC[C@H](C)[C@@H]1NC(=O)[C@H]([C@@H](C)O)NC(=O)[C@H](C)NC(=O)C[C@@H](C(=O)N[C@@H](Cc2c[nH]c3ccccc23)C(=O)N(C)[C@@H](Cc2cscn2)C(=O)N[C@@H](CO)C(=O)O)NC(=O)[C@H](C(C)C)NC(=O)[C@H](CCS(C)(=O)=O)NC(=O)[C@H](Cc2ccc(C(F)(F)F)cc2)NC(=O)[C@H](Cc2c[nH]c3ccccc23)NC(=O)[C@H](Cc2c[nH]c3ccccc23)NC(=O)[C@@H](Cc2ccc(O)cc2)NC(=O)[C@@H]2CCCN2C1=O, Chemically synthesized, HPLC purified) [Compound SP846] | 2000
